The values that follow come from the RNAGym collection of RNA variant scans (doi:10.7554/elife.80360).

B1: CPEB3 Ribozyme (parent)
chain: GGGGGCCACAGCAGAAGCGUUCACGUCGCGGCCCCUGUCAGAUUCUGGUGAAUCUGCGAAUUCUGCUGU

The variants in the data set derive from B1. The data set is described as follows: self-cleavage, relative activity (ratio to wild type); higher = more cleavage; co-transcriptional.
On to GGGGGUCACAGCAGUAGCGUUCACGUCGCGGCCCCUGUCAGAUUCUGGUGAAUCUGCGAAUUCUGCUGU, for which the self-cleavage came out at 0.698.
Under GGGGGGCACAGCAGAAGCGUUCACGUCGCGGCCCCUGUCAGAUUCUGGUGAAUCUGGGAAUUCUGCUGU stands 0.0373; under GGGGGGGACAGCAGAAGCGUUCACGUCGCGGCCCCUGUCAGAUUCUGGUGAAUCUGCGAAUUCUGCUGU, 0.0901.
For GGGGGGAACAGCAGAAGCGUUCACGUCGCGGCCCCUGUCAGAUUCUGGUGAAUCUGCGAAUUCUGCUGU the value was 0.0493; for GGGGGGCACAGCAGAAGCGUUCACGUCGCGGCCCCCGUCAGAUUCUGGUGAAUCUGCGAAUUCUGCUGU, 0.184.
Under GGGGGUCACAGCAGAAGCGUUCACGUCGAGGCCCCUGUCAGAUUCUGGUGAAUCUGCGAAUUCUGCUGU stands 0.493; under GGGGGUCACAGCAGAAGCGUUCACGUCGUGGCCCCUGUCAGAUUCUGGUGAAUCUGCGAAUUCUGCUGU, 0.405; under GGGGGGCACAGCAGAAGCGUUCACGUCGCUGCCCCUGUCAGAUUCUGGUGAAUCUGCGAAUUCUGCUGU, 0.045.
Regarding GGGGGGCACAGCAGAAGCGUUCACGUCGCGGCCCCUGUCACAUUCUGGUGAAUCUGCGAAUUCUGCUGU, the self-cleavage was determined as 0.118.
For GGGGGUCACAGCAGAAGCGUUCACGUCGCGGCCCCUGUCAGAUUCUGGUGAGUCUGCGAAUUCUGCUGU the value was 0.997; for GGGGGUCACAGCAGAAGCGUUCACGUCGCGGCCCUUGUCAGAUUCUGGUGAAUCUGCGAAUUCUGCUGU, 0.78.
As to GGGGGUCACAGCAGAAGCGUUCACGUCGCGGCCCGUGUCAGAUUCUGGUGAAUCUGCGAAUUCUGCUGU, the self-cleavage was 0.2.
For GGGGGUCACAGCAGAAGCGUUCACGUCGCGGCGCCUGUCAGAUUCUGGUGAAUCUGCGAAUUCUGCUGU the value was 0.145.
With GGGGGUCACAGCAGAAGCGUUCACGUCGCGGCACCUGUCAGAUUCUGGUGAAUCUGCGAAUUCUGCUGU, the self-cleavage came to 0.257.
In the case of GGGGGGCACAGCAGAAGCGUUCACGUCGCGGCCCCUGUCAGAUUCUGGUGAAGCUGCGAAUUCUGCUGU, the self-cleavage was determined as 0.136.
For GGGGGGCACAGCAGAAGCGUUCACGUCGCGGCCCCUGUCAGAUUCUGGUGAAUCCGCGAAUUCUGCUGU the value was 0.284; for GGGGGGCACAGCAGAAGCGUUCACGUCGCGGCCCCUGUCAGAUUCUGGUGAAUCGGCGAAUUCUGCUGU, 0.144; for GGGGGGCACAGCAGAAGCGUUCACGUCGCGGCCCCUGUCAGAUUCUGGUGAAUCAGCGAAUUCUGCUGU, 0.26.
For GGGGGGCACAGCAGAAGCGUUCACGUCGCGGCCCGUGUCAGAUUCUGGUGAAUCUGCGAAUUCUGCUGU the value was 0.0784; for GGGGGUCACGGCAGAAGCGUUCACGUCGCGGCCCCUGUCAGAUUCUGGUGAAUCUGCGAAUUCUGCUGU, 0.908.
Under GGGGGUCACAGCAGAAGCGUUCGCGUCGCGGCCCCUGUCAGAUUCUGGUGAAUCUGCGAAUUCUGCUGU stands 1.03; under GGGGGUCACAGCAGAAGCGUUCACGUCGCGGCCCCUGUCGGAUUCUGGUGAAUCUGCGAAUUCUGCUGU, 0.999; under GGGGGGCACAGCAUAAGCGUUCACGUCGCGGCCCCUGUCAGAUUCUGGUGAAUCUGCGAAUUCUGCUGU, 0.121.
In the case of GGGGGGCACAGCAGAAGCGUUCACAUCGCGGCCCCUGUCAGAUUCUGGUGAAUCUGCGAAUUCUGCUGU, the self-cleavage was found to be 0.0449.
On to GGGGGGCACAGGAGAAGCGUUCACGUCGCGGCCCCUGUCAGAUUCUGGUGAAUCUGCGAAUUCUGCUGU, for which the self-cleavage worked out at 0.253.
Under GGGGGGCACAGUAGAAGCGUUCACGUCGCGGCCCCUGUCAGAUUCUGGUGAAUCUGCGAAUUCUGCUGU stands 0.271; under GGGGGGCACAGAAGAAGCGUUCACGUCGCGGCCCCUGUCAGAUUCUGGUGAAUCUGCGAAUUCUGCUGU, 0.102; under GGGGGGCACAGCAGAAGCGUUCACGUCGCGGCCCCUGUAAGAUUCUGGUGAAUCUGCGAAUUCUGCUGU, 0.173.
For GGGGGGCACAGCAGAAGCGUUCACGUCGCGGCCCCUGUUAGAUUCUGGUGAAUCUGCGAAUUCUGCUGU the value was 0.168; for GGGGGUCACAGCAGAAGCGUUCACGUCGCGGCCCCUGUCAGGUUCUGGUGAAUCUGCGAAUUCUGCUGU, 0.951; for GGGGGGCACAGCAGAAGCGUUCACGUCGCGGCCCCUGUCAGAUUCUGGUGAAUAUGCGAAUUCUGCUGU, 0.162.
For GGGGGGCACAGCAGAAGCGUUCACGUCGCGGCCACUGUCAGAUUCUGGUGAAUCUGCGAAUUCUGCUGU the value was 0.0671; for GGGGGUCACAGCAGAAGUGUUCACGUCGCGGCCCCUGUCAGAUUCUGGUGAAUCUGCGAAUUCUGCUGU, 0.727.
For GGGGGUCACAGCAGAAGGGUUCACGUCGCGGCCCCUGUCAGAUUCUGGUGAAUCUGCGAAUUCUGCUGU, the self-cleavage came to 0.0786.
Consider GGGGGGCACAGCAGAAGCGUUCACGUCACGGCCCCUGUCAGAUUCUGGUGAAUCUGCGAAUUCUGCUGU, for which the self-cleavage turned out to be 0.0625.
Under GGGGGGCACAGCAGAAGCGUUCACGUCCCGGCCCCUGUCAGAUUCUGGUGAAUCUGCGAAUUCUGCUGU stands 0.0369; under GGGGGGCACAGCAGAAGCGUUCACGUCGCGCCCCCUGUCAGAUUCUGGUGAAUCUGCGAAUUCUGCUGU, 0.93.
Under GGGGGGCACAGCAGAAGCGUUCACGUCGCGGCCCCUGUCAGAUUCUGGUGAAUCUGCGAAUUCUGCAGU stands 0.325; under GGGGGUUACAGCAGAAGCGUUCACGUCGCGGCCCCUGUCAGAUUCUGGUGAAUCUGCGAAUUCUGCUGU, 0.86; under GGGGGUCACAGCAGAAGCGUUCACGUCGCGGACCCUGUCAGAUUCUGGUGAAUCUGCGAAUUCUGCUGU, 0.177.
Under GGGGGGCACAGCAGAAGCGGUCACGUCGCGGCCCCUGUCAGAUUCUGGUGAAUCUGCGAAUUCUGCUGU stands 0.0342; under GGGGGGCACAGCAGAAGCGCUCACGUCGCGGCCCCUGUCAGAUUCUGGUGAAUCUGCGAAUUCUGCUGU, 0.0949; under GGGGGGCACAGCAGAAGCGUUCACGUCGCGGCCCCUGGCAGAUUCUGGUGAAUCUGCGAAUUCUGCUGU, 0.0812.
In the case of GGGGGGCACAGCAGAAGCGUUCACGUCGCGGCCCCUGUCAGAUUCUGGUGAAUCUGCGAAUCCUGCUGU, the self-cleavage was 0.0999.
For GGGGGUCACAGCAGAAGCGUUUACGUCGCGGCCCCUGUCAGAUUCUGGUGAAUCUGCGAAUUCUGCUGU the value was 0.198; for GGGGGUCACAGCAGAAGCGUUAACGUCGCGGCCCCUGUCAGAUUCUGGUGAAUCUGCGAAUUCUGCUGU, 0.172.
With GGGGGGCACAGCAGAAGCGUUCACGUCGCGGCCCCUGUCAGAUUCUGGUGAAUCUGCGAAGUCUGCUGU, the self-cleavage came out at 0.209.
Under GGGGGGCACAGCAGAAGCGUUCACGUCGCGGCCCCUGUCAGAUUCUGGUGAAUCUGCGAAAUCUGCUGU stands 0.128; under GGGGGGCACAGCAGAAGCGUUCACGUCGCGGCCCCUGUCAGAUUGUGGUGAAUCUGCGAAUUCUGCUGU, 0.376.
For GGGGGUCACAGCAGAAGCGUUCACGUCGCGGCCGCUGUCAGAUUCUGGUGAAUCUGCGAAUUCUGCUGU the value was 0.188; for GGGGGUCACAGCAGAAGCGUUCACGUUGCGGCCCCUGUCAGAUUCUGGUGAAUCUGCGAAUUCUGCUGU, 0.256; for GGGGGGCACAGCAGAAGCGUUCACGUCGCGGCCCCUGUCAGAUUCUGAUGAAUCUGCGAAUUCUGCUGU, 0.493.
Under GGGGGGCAUAGCAGAAGCGUUCACGUCGCGGCCCCUGUCAGAUUCUGGUGAAUCUGCGAAUUCUGCUGU stands 0.489; under GGGGGGCACAGCAGAAGCGUUCACGUCGCGGCCCCUGUCAGAUUCUGGUGAAUCUGCGAAUUCCGCUGU, 0.166.
As to GGGGGGCACAGCAGAAGCGUUCACGUCGCGGCCCCUGUCAGAUUCUGGUGAAUCUGCGAAUUCGGCUGU, the self-cleavage was determined as 0.276.
For GGGGGGCACAGCAGAAGCGUUCACGUCGAGGCCCCUGUCAGAUUCUGGUGAAUCUGCGAAUUCUGCUGU the value was 0.0897; for GGGGGGCACAGCAGAAGCGUUCACGUCGCGGCCCCUGUCAGAUUCUGGUGAAUCUGCGAAUUCUGGUGU, 0.311.
For GGGGGUCACAGCGGAAGCGUUCACGUCGCGGCCCCUGUCAGAUUCUGGUGAAUCUGCGAAUUCUGCUGU the value was 0.987.
For GGGGGUCACAGCUGAAGCGUUCACGUCGCGGCCCCUGUCAGAUUCUGGUGAAUCUGCGAAUUCUGCUGU the value was 0.867; for GGGGGGCACAACAGAAGCGUUCACGUCGCGGCCCCUGUCAGAUUCUGGUGAAUCUGCGAAUUCUGCUGU, 0.177.
GGGGGGCACAUCAGAAGCGUUCACGUCGCGGCCCCUGUCAGAUUCUGGUGAAUCUGCGAAUUCUGCUGU: the self-cleavage turned out to be 0.185.
For GGGGGGCACAGCAGAAGCGUUCACGUCGCGGCCCCUGUCAGAUUCUUGUGAAUCUGCGAAUUCUGCUGU the value was 0.463; for GGGGGUCACAGCAGAAGCGUUCAGGUCGCGGCCCCUGUCAGAUUCUGGUGAAUCUGCGAAUUCUGCUGU, 0.345; for GGGGGGCACAGCAGAAGCGUUCACGUCGCGGCCCCUGUCAGAUUCCGGUGAAUCUGCGAAUUCUGCUGU, 0.41.
For GGGGGGCACAGCAGAAGCGUUCACGUCGCGGCCCCUGUCAGAUUCGGGUGAAUCUGCGAAUUCUGCUGU the value was 0.386; for GGGGGGCACAGCAGAAGCGUUCACGUCGCGGCCCCUGUCAGAUUCAGGUGAAUCUGCGAAUUCUGCUGU, 0.377; for GGGGGGCACAGCAGAAGCGUUCACGCCGCGGCCCCUGUCAGAUUCUGGUGAAUCUGCGAAUUCUGCUGU, 0.249.
Under GGGGGGCACAGCAGAAGCGUUCACGUCGCGGCCCCUGUCAGAAUCUGGUGAAUCUGCGAAUUCUGCUGU stands 0.172; under GGGGGGCACAGCAGAAGCGUUCACGUCGCGGCCCCUGUCAGAGUCUGGUGAAUCUGCGAAUUCUGCUGU, 0.126.
As to GGGGGGCACAGCAGAAGCGUUCACGUCGCGGCCCCUGUCAGAUUCUGGUCAAUCUGCGAAUUCUGCUGU, the self-cleavage was found to be 0.205.
With GGGGGGCACAGCAGAAGCGUUUACGUCGCGGCCCCUGUCAGAUUCUGGUGAAUCUGCGAAUUCUGCUGU, the self-cleavage turned out to be 0.106.
For GGGGGGCACAGCAGAAGCGUUAACGUCGCGGCCCCUGUCAGAUUCUGGUGAAUCUGCGAAUUCUGCUGU the value was 0.0965; for GGGGGGCACAGCAGAAGCGUUGACGUCGCGGCCCCUGUCAGAUUCUGGUGAAUCUGCGAAUUCUGCUGU, 0.0649.
For GGGGGGCACAGCAGAAGCGUUCACGUCGCGGCCCCUUUCAGAUUCUGGUGAAUCUGCGAAUUCUGCUGU the value was 0.0713; for GGGGGGCACAGCAGAAGCGUACACGUCGCGGCCCCUGUCAGAUUCUGGUGAAUCUGCGAAUUCUGCUGU, 0.246.
For GGGGGUCACAGCAGAAGCGUUCACGUCGCGGCCCCUGUCAGAUUCUGGUGGAUCUGCGAAUUCUGCUGU the value was 1.01; for GGGGGUCACAGCAGAAGCGUUCACGUCGCGGCCCCUGUCAGAUUCUGGUGUAUCUGCGAAUUCUGCUGU, 0.986; for GGGGGGCACAGCAGAAGCGUUCACGUCGCGGCCCCUGUCAGAUUCUGGUGAAUCUGCGAAUUCUCCUGU, 0.158.
